Columns and labels:
[1] = Rat pharmacokinetics, intravenous dosing; format: in vivo, Sprague-Dawley rats; settings: single dose 1 mg/ml
Description: (§1) In the rat, four pharmacokinetic parameters were measured for Gattex® (a GLP-2 peptide having the A2G mutation): CL, Vc, Vt and Q. The same pharmacokinetic parameters were also measured for GLP-2 peptibodies A, B, E, J, K, L, M, O and P. The data is shown in Table 4. Male Sprague-Dawley rats (3 animals per group) were injected intravenously either via a jugular vein or tail vein catheter. A singles dose of test article was injected at a dose level of 1 mg/ml. The test articles were formulated in PBS pH 7.4 at a concentration of Blood samples were taken 0.083, 0.167, 0.33, 0.5, 1, 2, 6, 24, 48, 72, 120, 168, 240, and 336 hours post dose. Blood samples were collected into heparinized tubes and centrifuged for 5 minutes at 2000 xg within 10 minutes of collection. 100 μL of plasma were transferred to a 1.5 ml Eppendorf tube containing 2 μL of 50 mM PMSF. After mixing, the plasma samples were frozen at −80° C. until analysis.

[2] = SEC-MALS (Sepax Zenix C-150) peak distribution; format: physicochemical
Description: A SEC-MALS assay was performed to determine the primary state (main peak) and its molecular weight. […] The GLP-2 peptibody O (albumin fusion) eluted at a molecular weight indicative of a monomer.
(§2) Stability analysis was then performed using SEC-MALS and NanoDSF. For SEC-MALS, a Sepax Zenix C-150 column was used. The mobile phase buffer was 1× PBS with a final concentration of 400 mM NaCl. The flow rate was 0.8 mL per minute. 20 micrograms of total protein was injected. For NanoDSF, 10 microliters of sample was used, without normalization of the samples.
as §2

[3] = Projection of intravenous and subcutaneous PK parameters for humans; parameters: species or system human
Description: While a dose of 30 μg/kg once weekly (QW) is projected from the cynomolgus monkey PK data, the dose should be ten times higher (300 μg/kg) to adjust for the difference in in vivo potency.

[4] = Cynomolgus monkey pharmacokinetic study; format: in vivo, cynomolgus monkeys; settings: 0.75 mg/kg
Description: Pharmacokinetics studies of teduglutide, GLP-2 Peptibody B and GLP-2 Peptibody K were formed in cynomolgus monkeys with citrulline assayed as a biomarker of GLP-2 concentration. In the study, 12.5 nmol/kg teduglutide was administered subcutaneously to a group of 6 male cynomolgus monkeys at day 1. Then for one set of 2 monkeys, 25 nmol/kg GLP-2 Peptibody B was administered intravenously at day 7, day 21, day 28, day 35, and day 42. For another set of 3 monkeys, 25 nmol/kg GLP-2 Peptibody B was administered subcutaneously at day 7, day 21, day 28, day 35, and day 42. For another set of monkeys, 5 nmol/kg GLP-2 Peptibody K was administered intravenously (2 monkeys) and subcutaneously (3 monkeys) at day 7, day 21, day 28, day 35, and day 42. For another set of monkeys, 25 nmol/kg GLP-2 Peptibody K was administered subcutaneously (3 monkeys) and intravenously (2 monkeys) at day 7, day 21, day 28, day 35, and day 42.

[5] = NanoDSF melting temperature / thermal stability; format: physicochemical
Description: Each of the GLP-2 peptibodies was tested by determining melting temperature with nanodifferential scanning fluorimetry (NanoDSF). NanoDSF is a measurement of protein stability over a range of temperatures, with a temperature ramp employed. The stability of tryptophan is measured by fluorescence, as reflected in a ratio of fluorescence at 350 nm to fluorescence at 330 nm. From the assay, one or more melting temperatures are determined. Because a protein in a certain state is understood to have a melting temperature, the number of melting temperatures observed reflects the number of different states.
as §2, §2

[6] = Rat pharmacokinetics, subcutaneous dosing; format: in vivo, Sprague-Dawley rats; settings: single dose 1 mg/ml
Description: as §1, with “5.” for “4.”, “subcutaneously into the intra-scapular region of the animal.” for “intravenously either via a jugular vein or tail vein catheter.”, “[…]” for “1.5”, “mixing” for “mixing,”, “analysis. Meso Scale Discovery (MSD) ELISA was undertaken to assay for the concentration of the GLP-2 peptibodies.” for “analysis.”
A sandwich immunoassay was developed using either an anti-Human IgG1 Fc antibody or an anti-human albumin antibody for capture of the peptibody and a sulfotag labeled anti GLP-2 antibody for detection.

[7] = molecular target: T1, hFcRn (extracellular domain of the FcRN) (Homo sapiens, UniProt P55899); assay: FcRn binding by surface plasmon resonance (Biacore)
T1 construct: made in house
Description: Binding to the Fc neonatal receptor (FcRN) allows for recycling of the molecules and leads to an extended in vivo serum half-life of the Fc fusion proteins. Recycling occurs as the molecules are passively taken into the cells and the pH of the endosomes is lower. That leads to binding of the Fc portion of the molecule to the FcRN. When the FcRN recycles back to the surface of the cell, the pH is then neutral and the protein is released back into the serum.
Binding to the extracellular domain of the FcRN was measured by surface plasmon resonance (SPR) using a Biacore system. Direct immobilization with FcRn was achieved via amine coupling of a CM5 chip with FcRn under the following conditions: • i) hFcRn (expressed and purified in house) is diluted in Acetate buffer pH 5.0 to 5 μg/mL. • ii) Immobilize 5 μg/mL of FcRn with target of 500 RU on CM5 chip in PBS pH 7.0 • iii) Final response 454 RU • iv) Running buffer: PBS-P+, pHed to 5.5
The kinetic binding study was done using the following protocol. Samples were diluted in PBS-P+ to 50, 25, 12.5, 6.25, 3.125, 1.56, 0.78, 0.39, 0 nM. The parameters were set as follows: • i) Association and Dissociation 300 s at Flow rate 30 μL/min • ii) Regeneration with 25 mM Tris, 150 mM NaCl pH 8.0 40 s at 60 μL/min
A measurement of the binding of the GLP-2 peptibodies to the Fc neonatal receptor (FcRN) was undertaken at pH 5.5 and pH 7.4.

T1 sequence (P55899 24-297 limits assumed): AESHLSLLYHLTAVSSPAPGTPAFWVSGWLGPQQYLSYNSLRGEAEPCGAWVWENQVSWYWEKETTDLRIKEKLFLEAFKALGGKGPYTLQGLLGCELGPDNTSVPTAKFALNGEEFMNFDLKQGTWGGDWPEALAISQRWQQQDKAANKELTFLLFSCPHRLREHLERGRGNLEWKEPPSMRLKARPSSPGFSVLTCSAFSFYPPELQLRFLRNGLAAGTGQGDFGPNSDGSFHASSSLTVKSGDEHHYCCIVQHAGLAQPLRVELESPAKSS
T1 sequence (P61769 21-119 partner): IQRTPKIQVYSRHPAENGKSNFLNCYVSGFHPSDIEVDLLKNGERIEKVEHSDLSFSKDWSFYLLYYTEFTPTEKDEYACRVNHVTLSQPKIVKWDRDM

Substance: GLP-2 peptibody B: GLP-2[A2G]-GGGGG linker-IgG1 Fc (LALA) with C-terminal lysine; SEQ ID NO: 4
- CL [1]: 2 mL/h/kg
- Q [1]: 2.42 mL/h/kg
- Vc [1]: 0.031 L/kg
- Vt [1]: 0.076 L/kg
- SEC-MALS Zenix C-150 main peak [2]: 85% main peak, 158,800 g/mol
- Vc [3]: 0.0494 L/kg
- Vt [3]: 0.0425 L/kg
- ka [3]: 2.43 day⁻¹
- CL (value in parentheses) ([3]; exponent on CL 0.85, monkey 3.5 kg, human 70 kg): 1.04 mL/h/kg
- CL ([3]; first value of cell): 1.63 mL/h/kg
- F ([3]; first value of cell): 98%
- Q ([3]; first value of cell): 1 mL/h/kg
- F (value in parentheses) ([3]; value in parentheses): 60%
- Q (value in parentheses) ([3]; value in parentheses): 0.642 mL/h/kg
- CL ([4]; MDPK, intravenous): 0.417 mL/h/kg
- Q ([4]; MDPK, intravenous): 1.2 mL/h/kg
- Vc ([4]; MDPK, intravenous): 0.0187 L/kg
- Vt ([4]; MDPK, intravenous): 0.0329 L/kg
- CL/F ([4]; MDPK, subcutaneous): 0.737 mL/h/kg
- Vc ([4]; MDPK, subcutaneous): 0.094 L/kg
- association constant (ka) ([4]; MDPK, subcutaneous): 1.59 day⁻¹
- CL ([4]; SDPK, intravenous): 0.396 mL/h/kg
- Q ([4]; SDPK, intravenous): 1.11 mL/h/kg
- Vc ([4]; SDPK, intravenous): 0.0171 L/kg
- Vt ([4]; SDPK, intravenous): 0.0276 L/kg
- CL/F ([4]; SDPK, subcutaneous): 0.737 mL/h/kg
- Vc ([4]; SDPK, subcutaneous): 0.0924 L/kg
- association constant (ka) ([4]; SDPK, subcutaneous): 1.52 day⁻¹
- NanoDSF melting temperature 1 ([5]; first transition): 1 = 67.1 °C
- NanoDSF melting temperature 2 ([5]; second transition): 2 = 79.9 °C
- CL [6]: 1.79 mL/h/kg
- Q [6]: 2.17 mL/h/kg
- Vc [6]: 0.073 L/kg
- Vt [6]: 0.068 L/kg
- ka [6]: B (0.45 ka/day,
- Kd ([7]; pH 5.5): 1.7 nM
- FcRN KD at pH 7.4 ([7]; pH 7.4): No binding in range tested.

— patent publication US20230031280A1, “GLP-2 FUSION POLYPEPTIDES AND USES FOR TREATING AND PREVENTING GASTROINTESTINAL CONDITIONS” (SHIRE-NPS PHARMACEUTICALS, INC., priority 2017, published 2023)
